Common to all, as to test: Ligand Surface Binding Assay
One assay concerns the target ACVR2B-Halo (human, UniProt Q13705 19-512).
The next assay addresses T1, BMPR2-Halo (human, UniProt Q13873 27-1038).
T1 sequence (looked up): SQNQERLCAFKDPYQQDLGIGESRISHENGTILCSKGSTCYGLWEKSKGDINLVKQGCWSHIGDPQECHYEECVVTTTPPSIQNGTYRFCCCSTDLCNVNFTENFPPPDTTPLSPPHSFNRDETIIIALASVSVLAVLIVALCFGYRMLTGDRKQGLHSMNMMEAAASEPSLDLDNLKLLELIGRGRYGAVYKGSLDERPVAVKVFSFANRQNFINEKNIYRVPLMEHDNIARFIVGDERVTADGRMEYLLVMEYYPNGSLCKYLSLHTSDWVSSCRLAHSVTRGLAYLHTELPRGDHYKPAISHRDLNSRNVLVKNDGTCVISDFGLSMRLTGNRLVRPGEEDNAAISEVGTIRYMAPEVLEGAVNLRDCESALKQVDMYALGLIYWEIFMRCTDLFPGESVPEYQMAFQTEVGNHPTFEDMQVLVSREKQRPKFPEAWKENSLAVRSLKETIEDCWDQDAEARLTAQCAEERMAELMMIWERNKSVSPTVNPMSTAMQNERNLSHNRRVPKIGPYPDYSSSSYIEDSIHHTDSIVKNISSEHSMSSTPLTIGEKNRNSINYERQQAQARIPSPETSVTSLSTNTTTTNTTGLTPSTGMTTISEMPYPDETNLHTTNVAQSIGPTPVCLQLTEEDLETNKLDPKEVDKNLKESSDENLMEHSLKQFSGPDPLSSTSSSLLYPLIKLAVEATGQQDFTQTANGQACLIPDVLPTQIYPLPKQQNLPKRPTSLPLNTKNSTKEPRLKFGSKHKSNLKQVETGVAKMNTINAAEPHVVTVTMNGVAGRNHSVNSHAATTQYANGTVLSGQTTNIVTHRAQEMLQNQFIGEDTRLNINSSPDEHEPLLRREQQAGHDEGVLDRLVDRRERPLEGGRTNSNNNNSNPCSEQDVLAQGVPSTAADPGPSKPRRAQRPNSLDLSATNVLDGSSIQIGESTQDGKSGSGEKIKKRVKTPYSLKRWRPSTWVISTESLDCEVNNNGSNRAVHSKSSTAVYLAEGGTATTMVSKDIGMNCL

The target of a further assay is ACVR2A-Halo (human, UniProt P27037 20-513).
ACVR2A-Halo, sequence (P27037 20-513): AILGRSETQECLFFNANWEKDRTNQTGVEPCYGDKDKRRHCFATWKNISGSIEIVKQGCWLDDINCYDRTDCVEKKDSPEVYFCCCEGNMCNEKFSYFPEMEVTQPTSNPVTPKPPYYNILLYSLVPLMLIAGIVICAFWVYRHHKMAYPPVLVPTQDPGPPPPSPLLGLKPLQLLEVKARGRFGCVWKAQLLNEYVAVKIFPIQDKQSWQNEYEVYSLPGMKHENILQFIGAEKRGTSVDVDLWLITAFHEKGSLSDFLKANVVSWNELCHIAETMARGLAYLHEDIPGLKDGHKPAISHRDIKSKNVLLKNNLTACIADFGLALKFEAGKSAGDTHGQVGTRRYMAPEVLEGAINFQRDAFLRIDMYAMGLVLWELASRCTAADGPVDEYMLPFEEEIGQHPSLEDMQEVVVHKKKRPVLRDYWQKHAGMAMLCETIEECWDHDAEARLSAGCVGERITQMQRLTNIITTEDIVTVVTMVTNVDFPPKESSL

ACVR2B-Halo, sequence (Q13705 19-512): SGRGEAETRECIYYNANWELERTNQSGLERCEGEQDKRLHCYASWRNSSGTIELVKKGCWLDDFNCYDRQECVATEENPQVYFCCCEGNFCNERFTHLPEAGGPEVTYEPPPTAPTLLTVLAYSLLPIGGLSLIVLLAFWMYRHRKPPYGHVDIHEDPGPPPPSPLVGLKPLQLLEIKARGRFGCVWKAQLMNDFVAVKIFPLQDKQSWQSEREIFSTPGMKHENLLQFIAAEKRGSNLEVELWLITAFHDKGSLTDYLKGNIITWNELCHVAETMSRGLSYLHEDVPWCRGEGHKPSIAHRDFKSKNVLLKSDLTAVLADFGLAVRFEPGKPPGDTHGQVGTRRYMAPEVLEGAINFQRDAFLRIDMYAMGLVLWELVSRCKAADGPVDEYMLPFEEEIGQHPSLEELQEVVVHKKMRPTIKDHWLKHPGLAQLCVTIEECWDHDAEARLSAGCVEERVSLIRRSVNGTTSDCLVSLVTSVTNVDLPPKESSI

B1: Activin A-Cy5 (ligand, UniProt P08476 311-426, looked up)
chain: GLECDGKVNICCKKQFFVSFKDIGWNDWIIAPSGYHANYCEGECPSHIAGTSGSSLSFHSTVINHYRMRGHSPFANLKSCCVPTKLRPMSMLYYDDGQNIIKKDIQNMIVEECGCS
modifications: Cy5 label (NHS-activated Cy5, protein:dye ratio 1:2 in the labelling reaction)
B1: the “fold Activin A-Cy5 binding relative to untransfected cells” value is ~84 fold with ACVR2B-Halo, ~27 fold with BMPR2-Halo and ~29 fold in the assay with ACVR2A-Halo.

The record behind these values is publication doi:10.1101/2022.03.04.482944 (bioRxiv, 2022).
